A short description of the data set: yeast display, Sf9 membrane polyspecificity reagent, FACS + sequencing; frameworks hold sequencing errors. A digest of the protocol: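 Nanobodies came from a synthetic yeast display library in Saccharomyces cerevisiae BJ5465, induced with galactose for 36–48 hours and stained for 1 hour at 4 °C with 10% biotinylated, detergent-solubilized Sf9 membrane reagent. Cells were enriched on streptavidin microbeads and then FACS-sorted, with low and high (top ~1%) gates set on anti-HA fluorescence for expression and streptavidin fluorescence for reagent binding. Each polyreactivity label reflects the gate a clone came from. Genes were amplified by colony PCR, sequenced by MiSeq 2 × 250 and filtered by CDR length.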
Regarding “QVQLVESGGGLVQAGGSLRLSCAASGSIFDLYAKGWYRQAPGKERELVAGISYSGGSTYYADSVKGRFTISRDNAKNTVYLQMNSLKPEDTAVYYCATAYYYHGGYYYPYDDYWGQGTQVTVSS”, the “polyreactivity (PSR sort gate)” value is recorded as “low polyreactivity”. With “QVQLVESGGGLVQAGGSLRLSCAASGSIFDLYVMGWYRQAPGKERELVAAISLIGGSTSYADSVKGRFTISRDNEKNTVYLHRKSLKPEDTAVYYCAVEKFFRAEYDHWGLGTQVTVSS” the entry was “low polyreactivity”; with “QVQLVESGGGLVQAGGSLRLSCAASGSIFDNYAMGWYRPAPGKERELVAAITSGGSTYYADSVKGRFTISRDNAKNTVYLQMNSLKPEDTAVYYCAKDYKSIDDYWGQGTQVTVSS”, “low polyreactivity”. With “QVQLVESGGGLVQAGGSLRLSCAASGSIFDPYAMGWYIQAPGKERELDAAITASGSSTYYADSVKGRFTISRDNAKNTVYLQMNSLKPEDTAVYYCAADRANWEYLLSWLGYDYWGQGTQVTVSS”, the “polyreactivity (PSR sort gate)” value is listed as “low polyreactivity”.

As for “QVQLVESGGGLVQAGGSLRLSCAASGSIFDPYAMGWYRQAPGKERELVAAITSDGSTNYADSVKGRFTISRDNAKNTVYLQMNSLKPEDTAVYYCAKHQFGRYVVLYPRGHWFDYWGQGTQVTVSS”, the “polyreactivity (PSR sort gate)” value is “low polyreactivity”.

For the sequence “QVQLVESGGGLVQAGGSLRLSCAASGSIFDPYGMGWYRQAPGKERELVAAISSSDGSTYYADSVKGRFTISRDNAKNTVYLQMNSLKPEDTAVYFCAAETYGTNSSNTVYRWKYDYWGQGTQVTVSS”, the “polyreactivity (PSR sort gate)” value is “low polyreactivity”.

“QVQLVESGGGLVQAGGSLRLSCAASGSIFDQYAMGWYRPAPGKERELVAAIDTSGGSTYYADSVKGRFTISRDNAKNTVYLQMNSLKPEDTAVYYCNAGGDGDILTTEMDYWGPGTQVTVSS”: the “polyreactivity (PSR sort gate)” value was “low polyreactivity”. With “QVQLVESGGGLVQAGGSLRLSCAASGSIFDRNAMGWYRQAPGKERELVAAISRSSGNTYYADSVKGRFTISRDNAKNTVYLQMNSLKPEDTAVYYCNKVDYWGQGTQVTVSS” the entry was “high polyreactivity”; with “QVQLVESGGGLVQAGGSLRLSCAASGSIFDRYAMGWYIQAPGKERELVASITWRATSTYYADSVKGRFTISRDNAKNTVYLQMNSLKPEDTAVYYCAADVPWGWWDSDFSDNYYWGQGTQVTVSS”, “low polyreactivity”. Regarding “QVQLVESGGGLVQAGGSLRLSCAASGSIFDSNAMGWYRQAPGKERELVADIRGIGGSTYYADSVKGRFTISRDNAKNTVYLQMNSLKPEDTAVYYCNTSTLGGYYWGQGTQVTVSS”, the “polyreactivity (PSR sort gate)” value is “low polyreactivity”. Consider “QVQLVESGGGLVQAGGSLRLSCAASGSIFDSNAMGWYRQAPRQERELVAAISSGGNTNYADSVKGRFTISRDNAKNTVYLQMNSLKPDDTAVYYCARDTQLPHFYGRVSEYDYWGQGTQVTVSA”, for which the “polyreactivity (PSR sort gate)” value is on record as “low polyreactivity”. For the sequence “QVQLVESGGGLVQAGGSLRLSCAASGSIFDSYAMGWSRQAPGKERELVAAITWSGGITFYADSVKGRFTISRDNAKNTVYLQMNSLKPEDTAVYYCATARSYVGVGGTFVGLYDYWGQCTQVTVSS”, the “polyreactivity (PSR sort gate)” value is given as “low polyreactivity”. With “QVQLVESGGGLVQAGGSLRLSCAASGSIFDSYAMGWYRQAPGKDRELVAAISGNSDSTYYADSVKGRFTISRDNATNTVYSQMNSLKAEDTAVYNCNARGRLPYLEFYYWGQGTQVTVSS” the entry was “low polyreactivity”; with “QVQLVESGGGLVQAGGSLRLSCAASGSIFDSYTMAWYRQEPGKEREFVAAISRGGGSTYYADSVKGRFTISRDNAKNTVYLQMNSLKPEDTAVYYCAASSYLNSRFKFDYWGQGTQVTVSS”, “low polyreactivity”; with “QVQLVESGGGLVQAGGSLRLSCAASGSIFDVNAMGCARQAPGNERELVAGISWSGGSTYYADSVKGRFTISRDNAKNTVYLQMNSLKPEDTAVYYCNAEGPIYFYFYRGMDYWGQGTQVTVSS”, “low polyreactivity”.

On to “QVQLVESGGGLVQAGGSLRLSCAASGSIFDVNAMGWYRQAPGKERELVAAISDSGGSTYYADSVKGRFTISRDNAKNTVYLQMNSLKPEDSAVYYCNADWSWYNYYDFDYWGQGTQVTVSS”, for which the “polyreactivity (PSR sort gate)” value is recorded as “low polyreactivity”. “QVQLVESGGGLVQAGGSLRLSCAASGSIFDVNAMGWYRQAPGKERELVASIDNSGTTNYADSVKGRFTISRDNAKNTVYLHMNSLKPEDTAVYYCAKDASLEYSRWGGDYWGQGTQVTVSS”: the “polyreactivity (PSR sort gate)” value is recorded as “low polyreactivity”.

Consider “QVQLVESGGGLVQAGGSLRLSCAASGSIFDVNTMGSYRQAPGKETELGASITSSGSTYYADSVKGRFTISRDNAKNTVYLQMNSLKPEDTAVYYCAATPIGQHFTLDYWGQGTQVTVSS”, for which the “polyreactivity (PSR sort gate)” value is recorded as “low polyreactivity”.

As to “QVQLVESGGGLVQAGGSLRLSCAASGSIFDVYAMGWYRLAPGKERELVAAINWTGGSTYYADSVKGRFTISRDNAKNTVYLQMNSLKPEDTAVYYCAASYYYGTEHYDYWGQGTQVTVSS”, the “polyreactivity (PSR sort gate)” value is “low polyreactivity”. On to “QVQLVESGGGLVQAGGSLRLSCAASGSIFDVYAMGWYRQAPGKERELVAAITWRGGSTYYADSVKGRFTISRDNAKNTVYLQMNSLKPEDTAVYYCAAVYQSRLWDRYYYWGQGTQVTVSS”, for which the “polyreactivity (PSR sort gate)” value was “high polyreactivity”. For the sequence “QVQLVESGGGLVQAGGSLRLSCAASGSIFDVYTMGWYRQAPGKDRELVAAINTGGGSTYYADSVKGRFTISRDNAKNTVYLQMNSLKPEDTAVYYCARSRYREWGQGTQVTVSS”, the “polyreactivity (PSR sort gate)” value was “low polyreactivity”. Turning to “QVQLVESGGGLVQAGGSLRLSCAASGSIFDVYTRGWYRQAPGKQRELVAAINTGGGSTYYADSEKGRFTISRDIAKNTVYLQMNSLKPEDTAVYYCAASVYHYGPLYYWGQVTQVTVSS”, the “polyreactivity (PSR sort gate)” value is given as “low polyreactivity”. “QVQLVESGGGLVQAGGSLRLSCAASGSIFDWYAMGWYRQAPGKEGELVAAISSGDSTYYADSVKGRFTISRDNAKNTVYLQMNSLKPEDTAVYYGAAVTKLSGIRYNYWGQGTQVTVSS”: the “polyreactivity (PSR sort gate)” value is “low polyreactivity”. In the case of “QVQLVESGGGLVQAGGSLRLSCAASGSIFDYNAMGWYIQAPGKEREFVAAITYSGGSTYYADSVKGRFTISRDNAKYTVYLQMYSLKPEDSAVYYCGADYFQHVPKYGYCGQGTQVTVSS”, the “polyreactivity (PSR sort gate)” value is “low polyreactivity”. Under “QVQLVESGGGLVQAGGSLRLSCAASGSIFDYYAMGWYRQAPGKERELVAAIDSGDITYYADSVKGRFTISRDNAMNTVYLQMNSLKPEETAVYYCAAEGTGYSVGWQYGYWGQGTQVTVSS” stands “low polyreactivity”. For “QVQLVESGGGLVQAGGSLRLSCAASGSIFDYYAMGWYRQAPGKERELVAAIRRIGGITYYADSVKGRFTISRDNAKNTVYLQMNSLKPEDTAVYYCNVLVKHSTTTYSTYDYWGQGTQVTVSS”, the “polyreactivity (PSR sort gate)” value was “high polyreactivity”. Under “QVQLVESGGGLVQAGGSLRLSCAASGSIFDYYAMGWYRQAPGKERELVAAISGTGGSTYYADSVKGRFTISRDNAKNTVYLQMNSLKPEDTAVYYCNAGRHILTALRNDGTFDYWGQGTQVTVSS” stands “high polyreactivity”; under “QVQLVESGGGLVQAGGSLRLSCAASGSIFDYYTMGWYRQAPGKEREFVAGISDSGGSTNYADSVKGRFTISRDNAKNTVYLQMNSLKPEDTAVYYCNAEYVGWFYKYDYWGQGTQVTVSS”, “high polyreactivity”. Turning to “QVQLVESGGGLVQAGGSLRLSCAASGSIFEFYAMGWYRQAPGKERELVAAITSDGGSTYYADSVKGRFTISRDNAKNTVYLQMNSLKPEDTAVYYCAKDPYALPAQINDYWGQGTQVTVSS”, the “polyreactivity (PSR sort gate)” value is “high polyreactivity”.

Turning to “QVQLVESGGGLVQAGGSLRLSCAASGSIFEGYGMGWYRQAPGKERELVASISTGDSTKYADSVKGRFTISRDNAKNTVYLQMNSLKPEDTAVYYCNAPYFYLPHKYDYWGQGTQVTVSS”, the “polyreactivity (PSR sort gate)” value was “low polyreactivity”.

For the origin of these results see the nanobody polyreactivity screen of Harvey et al. (2022).
